Assays:
[1] = molecular target: T1, human CD40-His tag protein (Sino Biological Inc. Cat #10239-H08E) (human, UniProt P25942 21-193); assay: ELISA, plate coated with human CD40-His at 1 ug/ml, anti-human IgG-HRP, A450
T1 construct: also called human CD40 protein; CD40 protein; not shown: His tag
Description: CD40 protein (human CD40-His tag protein (Sino Biological Inc. Cat #10239-H08E) or rhesus monkey CD40-His (Sino Biological Inc. Cat #90097-C02H) was diluted in PBS to 1 ug/ml and used to coat an ELISA plate (Corning, Cat #9018, high binding) at a concentration of 50 ul/well. The plate was incubated overnight at 4° C. The plate was then decanted and washed with PBS-T, and 200 μl/well assay diluent (1×PBS/1% BSA/0.05% Tween-20/0.05% proclin 300) was added. After a 3 hour incubation at room temperature, the plate was washed with PBS-T three times. The testing antibodies were diluted in assay diluent to 0, 0.000003, 0.00003, 0.0003, 0.003, 0.03, and 0.3 ug/ml or approximately 0, 0.00002, 0.0002, 0.002, 0.02, 0.2 and 2 nM and then added to the plate (50 ul/well). The plate was incubated for one hour at 37° C. and then washed three times with PBS-T. Anti-human IgG-HRP conjugate (Bethyl Cat #A80-319P) at a 1:10,000 dilution was added to the plate (100 ul/well). The plate was incubated for 0.5 hour at 37° C., followed by washing with PBS-T three times. The TMB substrate solution was added (100 ul/well). The color was allowed to develop for 8 minutes before it was stopped with 100 ul/well 2N H₂SO₄. Absorbance at 450 nm was determined with an ELISA reader.

[2] = molecular target: monkey CD40 protein (plate coat of the ELISA of Fig. 5) (cynomolgus monkey per paragraph 23; rhesus …); assay: ELISA on monkey CD40 protein coated on the plate, anti-human IgG-HRP, A450

T1 sequence (P25942 21-193 limits assumed, stated change not applied): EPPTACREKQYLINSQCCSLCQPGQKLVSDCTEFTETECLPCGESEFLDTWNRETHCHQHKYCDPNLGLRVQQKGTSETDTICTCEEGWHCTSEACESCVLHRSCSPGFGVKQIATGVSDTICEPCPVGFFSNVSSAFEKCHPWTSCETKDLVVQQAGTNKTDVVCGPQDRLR

| EC50 (read off the curve) [1] [ng/mL] | EC50 (read off the curve) [2] [ng/mL] | Binder |
| --- | --- | --- |
| ~3 | – | LYV376 (chimeric antibody, 19G6D6 in human IgG4SP / human kappa) (antibody, V domains shown, also called 19G6D6 chimeric; 1966D6 (LYV376)) VH: EVQLQQSGPELVKPGASVKIPCKASGYTFTDYNMDWVKQSHGKSLEWIGDINPNNDISIYNQKFRGKATLTVDKSSSTAYMELRSLTSEDTAVYYCARRFAYWGQGTLVTVSA VL: EIVLTQSPTTMAASPGEKITITCSASSSISSNYLHWYQQKPGSSPKVLIYRTSNLASGVPVRFSGSGSGTSYSLTIGTMEAEDVATYYCQQGSSIPYTFGGGTKLEIKR |
| ~4 | – | LYV378 (chimeric antibody, 9F12D9 in human IgG4SP / human kappa) (antibody, V domains shown, Human IgG4 S228P and human kappa; elsewhere it is 9F12D9; also called 9F12D9 chimeric; 9F12D8) VH: EVHLVESGGGLVQPGRSLKLSCAASGFTFTNYGLHWIRQAPTKGLEWVASISPSGGVTYYRDSVKGRFTISRDNGKTTLHLQMDSLRSEDTATYYCALPFLGWGGANWIAHWGQGTLVTVSS VL: DIQMTQSPASLSASLGETVSIECLASEDISNDLAWYQQKSGKSPQLLIYFVDRLLDGVPSRFSGSGSGTRHSLKISGMQPEDEADYFCQQSYKYPPTFGGGTKLELKR |
| ~20 | ~5 | LYV379 (chimeric antibody, 17C5C2 in human IgG4SP / human kappa) (antibody, V domains shown, Human IgG4 S228P and human kappa; also called 17C5C2 chimeric) VH: EVHILETGGGLVKPGGSLGLSCTTSGFNFNDYFMNWVRQAPGKGLEWVAQIRNGNYDYAAYYAESLEGRVTISRDDSKSSVNLQVSSLRAEDTAIYYCTSYYYDGHFDYFDNWGHGVMVTVSS VL: DIKVTQSPSFLSASVGDRATINCKASQNLNKYLNWYQQKPGEPPKLLIYNTDNLYTGIPSRFSGSGSVADFTLTISGLQPEDVATYFCMQHNVRRTFGGGTKLELKR |
| ~20 | – | LYV391 (chimeric antibody, 36G7B8 in hG4SP / human kappa) (antibody, human IgG4 S228P, kappa, V domains shown, Human IgG4 S228P and human kappa; also called 36G7B8 chimeric; 366788 (LYV391)) VH: QVQLQQPGAELVRPGASVKLSCKASGYIFISYWIHWLKQRPGRGLEWIGRIDPNNGGTKYNEKFRYKASLTVDKSSSTAYMQLSSLTSEDSAVYYCTKGVITTLVAGDYWGQGTTLTVSS VL: DVVMTQIPLSLPVSIGDQASISCRSSQSLVYSYGNTYLHWFLQKPGQSPKLLIYNVSNRFSGVPDRFSGSGSGTDFTLRISRVEAEDLGVYFCSQGTHVPWTFGGGTKLEIKR |
| ~4 | – | LYV377 (chimeric antibody, 13F1A7 in human IgG4SP / human kappa) (antibody, V domains shown, Human IgG4 S228P and human kappa; also called 13F1A7 chimeric; LTV377) VH: EVQILETGGGLVKPGGSLRLSCATSGFNFNDSFMNWVRQAPGKGLEWVAQIRNKNYNYATYYTESLEGRVTISRDDSKSRVYLQVSSLRAEDSAVYYCTSYYYDGFADYFDYWGQGVMVTVSS VL: DIKMTQSPSFLSASVGDSVTFTCKASQNIYIYLNWYQQKFGEAPKLLIYNTNNLQTGIPSRFSGSESGTVFTLTISSLQPEDVATYFCLQHSSRRTFGGGTKLELKR |

From patent US20210179727A1 (LYVGEN BIOPHARMA, published 2021)
